Laboratory results from the RNAGym collection of RNA variant scans (doi:10.1073/pnas.2313332121).
This sample holds only a part of the variants without activity.

B1: TPR 5TU (parent)
chain: GGAUCUUCUCGAUCUAACAAAAAAGACAAAUCUGCCACAAAGCUUGAGAGCAUCUUCGGAUGCAGAGGCGGCAGCCUUCGGUGGCGCGAUAGCGCCAACGUUCUCAACUAUGACACGCAAAACGCGUGCUCCGUUGAAUGGAGUUUAUCAUG

Variants of: B1
Experiment: polymerase ribozyme fitness, log enrichment relative to wild type (log ratio); higher = more active; in vitro selection for triplet polymerase activity
In short: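 Fitness compares each genotype's enrichment to that of the wild type on a logarithmic scale, averaging replicates with inverse-variance weights. The logarithm is base 2. Enrichment came from Illumina sequencing of input and output libraries after one triplicate round of in vitro selection, which included frozen incubation at −7 °C, of PCR-built, transcribed mutant libraries of each subunit of a heterodimeric triplet polymerase ribozyme. Only genotypes with ≥10 input reads and ≥1 read per output were kept.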

Variant | polymerase ribozyme fitness (log ratio)
A17G A40G G50C C85A | ≤ -4.2
A17U U127A | -3.29
A17U U55A G59C G94U C132G | ≤ -4.2
C18A A73G G83C C118U A150G | ≤ -4.2
A19C A26C C38A C43G G74U G80C | ≤ -4.2
C18A A73U G86A A110G | ≤ -4.2
A19G A39C G92A C116A | ≤ -4.2
A19C C96U G124C | -0.582
C18G A26C A107G | ≤ -4.2
A19G A52G G58U A64G U139A | ≤ -4.2
A17U C69U U77C C87U | ≤ -4.2
A17G C27A A29U U55A A64G C79A C93U A98G G100U G136A | ≤ -4.2
A19G A49U U55A C96U | -1.84
C18U A49U | -1.09
C18U G46U G94A C131U | -1.88
C18A G83A A107C A110C | ≤ -4.2
A17U C18U A22C | -1.32
A17G C93G C108G | -4.11
A17G C57U C69A G100A | ≤ -4.2
C18U A22G A30G G34U G42U U77A C96A | ≤ -4.2
C18G C32U A37G A60G C75U C96U | ≤ -4.2

Variant | polymerase ribozyme fitness (log ratio)
C18A G86A C96U A115C | -2.7
C18U A29U A91U A107U | ≤ -4.2
A19C G80A C96U C99U G124A | 0.098
C18G A19C U33G C36U G46A C87U A110G | ≤ -4.2
A17U A20G A40C G126U | -0.583
A17G G84U | -2
C18U C87U | -1.47
A19G A29U A49G C118U | ≤ -4.2
A19G C79G | ≤ -4.2
A19C A23G A30C A91G A138U U139G | -4.05
A17U C35U A66C C72U G80A C93A | ≤ -4.2
A17U U61G C76G | ≤ -4.2
A19C G67C | ≤ -4.2
A19C A22U C38G G58C C85U U102A | -1.87
A17G A60G U61A A110G C118U C129A | ≤ -4.2
A19G C51U C95A A115U | -3.61
C18A C93U A113U A119C G140U | -4.1
A17G C36G G83C C99U U104G C125U U145C A147C | ≤ -4.2
C18U G58A | -0.517
A17U A24U | 0.106
A17G A20U G42C A49C A52U U148A | ≤ -4.2

Variant | polymerase ribozyme fitness (log ratio)
A17U A41C G83C A97U U127A A138U A150C | ≤ -4.2
A19C C32U A37G A52G C87G A89U U90A C125G U139G | ≤ -4.2
A17U A28G G86C A106C C116A A119U | ≤ -4.2
C18A A20U A24G A26G A29U C57A U77A G88C | ≤ -4.2
A17G A39U C54G A64C A89C U90G A122U U139C U144A | ≤ -4.2
A19C G50C A52G | -2.64
C18U U31C A89C C93A G140U | ≤ -4.2
A19G A52U G83A A98G C118G G124A U134C G140U | ≤ -4.2
A17U C54U G84A | -0.832
A17C G86U | -0.8
A19G C93A A113U G141C | ≤ -4.2
A17U C76A A122G | -0.419
A19G C35U C75G C129A U135C U145G | ≤ -4.2
A19C A91U | -3.83
C18U A41G G46A U56G C85A U135G U144C | ≤ -4.2
C18G A20C A22U U55G G62A | -3.57
A19C C63U A120G U145A | 0.504
A17U A40U A113C A115C C131U | ≤ -4.2
A17U G62U C85U G141U | -0.389
C18A U56A C93A A137G | -4.08
A19G C57U G92A U104G C116U | -4.18

Variant | polymerase ribozyme fitness (log ratio)
A17U U77G C87G G92C A119C | ≤ -4.2
C18G G92A | -3.23
A17U U53A | -0.974
A17C G83C | -0.317
A19G C38A U102C C108U | ≤ -4.2
C18G G50A A91G G94C C132G | ≤ -4.2
C18U A19G G50A C54U G67C C69A G92C C114A A120U U134G | ≤ -4.2
C18A C38A A47C C93A A98U | -3.69
A19C A66G | -3.95
C18U A113G C123A | -3.22
A19G C35U G58A C85A G143A | -3.66
C18U A60U G92U C93U C95U C125U | -4.09
C18A U31C A40C G62C A91C A119G | ≤ -4.2
C18A A20C U53C G59U C93G U148C | -4.14
A17G A30U G83A U101C G128U | ≤ -4.2
A19C C38G G70A G80C A98G C118U A150U | -3.77
A19C A20G U55A G58U C85A G140C | ≤ -4.2
A19G U44A G58A G67A C87A A106G G141U | ≤ -4.2
A19G C93U | -1.99
A19G A26G | -3.57
A19G A49G U56A A66G G67C C108U G136A C149A G152U | ≤ -4.2
